Test results from the supplement of paper PMC11246515.
± gives the standard deviation of the averaged measurements.

Experiment: total protein half-life in vivo (active degradation + dilution); higher = more stable protein
[1] = E. coli NCM3722 delta-clpP delta-lon delta-hslV, growth: N-lim chemostat, doubling time 6 h
[2] = E. coli NCM3722 delta-clpP, growth: N-lim chemostat, doubling time 6 h
[3] = E. coli NCM3722 delta-hslV, growth: N-lim chemostat, doubling time 6 h
[4] = E. coli NCM3722 delta-lon, growth: N-lim chemostat, doubling time 6 h
[5] = E. coli NCM3722 delta-smpB, growth: N-lim chemostat, doubling time 6 h
[6] = wild type E. coli NCM3722, growth: C-lim chemostat, doubling time 3 h
[7] = wild type E. coli NCM3722, growth: C-lim chemostat, doubling time 6 h
[8] = wild type E. coli NCM3722, growth: C-lim chemostat, doubling time 12 h
[9] = wild type E. coli NCM3722, growth: N-lim chemostat, doubling time 6 h
[10] = wild type E. coli NCM3722, growth: N-lim chemostat, doubling time 12 h
[11] = wild type E. coli NCM3722, growth: P-lim chemostat, doubling time 6 h
[12] = wild type E. coli NCM3722, growth: P-lim chemostat, doubling time 12 h

## MATFSLGKHPHVELCDLLKLEGWSESGAQAKIAIAEGQVKVDGAVETRKRCKIVAGQTVSFAGHSVQVVA [P0AAS7]
[1]
  total protein half-life in vivo: 4.09 ± 0.36 h
[2]
  total protein half-life in vivo: 3.39 ± 0.29 h
[3]
  total protein half-life in vivo: 2.72 ± 0.6 h
[4]
  total protein half-life in vivo: 4.18 ± 1.2 h
[5]
  total protein half-life in vivo: 2.3 ± 0.15 h
[6]
  total protein half-life in vivo: 2.4 ± 0.59 h
[7]
  total protein half-life in vivo: 4 ± 0.91 h
[8]
  total protein half-life in vivo: 4.46 ± 0.44 h
[9]
  total protein half-life in vivo: 2.71 ± 0.057 h
[10]
  total protein half-life in vivo: 3.68 ± 0.15 h
[11]
  total protein half-life in vivo: 1.97 ± 0.26 h
[12]
  total protein half-life in vivo: 3.576 ± 0.012 h

## MHADTATRQHWMSVLAHSQPAELAARLNALNITADYEVIRAAETGLVQIQARMGGTGERFFAGDATLTRAAVRLTDGTLGYSWVQGRDKQHAERCALIDALMQQSRHFQNLSETLIAPLDADRMARIAARQAEVNASRVDFFTMVRGDNA
[11]
  total protein half-life in vivo: 1.11 ± 1.1 h
[12]
  total protein half-life in vivo: 1.64 ± 0.035 h

## MATDSTQCVKKSRGRPKVFDRDAALDKAMKLFWQHGYEATSLADLVEATGAKAPTLYAEFTNKEGLFRAVLDRYIDRFAAKHEAQLFCEEKSVESALADYFAAIANCFTSKDTPAGCFMINNCTTLSPDSGDIANTLKSRHAMQERTLQQFLCQRQARGEIPPHCDVTHLAEFLNCIIQGMSISAREGASLEKLMQIAGTTLRLWPELVK
[1]
  total protein half-life in vivo: 5.38 ± 0.14 h
[2]
  total protein half-life in vivo: 3.65 ± 0.34 h
[3]
  total protein half-life in vivo: 1.46 ± 0.015 h
[4]
  total protein half-life in vivo: 2.04 ± 0.17 h
[5]
  total protein half-life in vivo: 1.57 ± 0.097 h
[6]
  total protein half-life in vivo: 1.69 ± 0.081 h
[7]
  total protein half-life in vivo: 2.99 ± 0.34 h
[8]
  total protein half-life in vivo: 4.6 ± 0.59 h
[9]
  total protein half-life in vivo: 1.78 ± 0.021 h
[10]
  total protein half-life in vivo: 2.32 ± 0.54 h
[11]
  total protein half-life in vivo: 2.49 ± 0.15 h
[12]
  total protein half-life in vivo: 3.73 ± 1.1 h

## MKAILIPFLSLLIPLTPQSAFAQSEPELKLESVVIVSRHGVRAPTKATQLMQDVTPDAWPTWPVKLGWLTPRGGELIAYLGHYQRQRLVADGLLAKKGCPQSGQVAIIADVDERTRKTGEAFAAGLAPDCAITVHTQADTSSPDPLFNPLKTGVCQLDNANVTDAILSRAGGSIADFTGHRQTAFRELERVLNFPQSNLCLKREKQDESCSLTQALPSELKVSADNVSLTGAVSLASMLTEIFLLQQAQGMPEPGWGRITDSHQWNTLLSLHNAQFYLLQRTPEVARSRATPLLDLIKTALTPHPPQKQAYGVTLPTSVLFIAGHDTNLANLGGALELNWTLPGQPDNTPPGGELVFERWRRLSDNSQWIQVSLVFQTLQQMRDKTPLSLNTPPGEVKLTLAGCEERNAQGMCSLAGFTQIVNEARIPACSL
[1]
  total protein half-life in vivo: 5.24 ± 0.47 h
[2]
  total protein half-life in vivo: 5.26 ± 0.056 h
[3]
  total protein half-life in vivo: 6.56 ± 0.62 h
[4]
  total protein half-life in vivo: 6.26 ± 0.8 h
[5]
  total protein half-life in vivo: 5.84 ± 0.11 h
[6]
  total protein half-life in vivo: 3.02 ± 0.21 h
[8]
  total protein half-life in vivo: 11.6 ± 0.68 h
[9]
  total protein half-life in vivo: 5.94 ± 0.28 h
[10]
  total protein half-life in vivo: 12.6 ± 0.49 h
[11]
  total protein half-life in vivo: 5.7 ± 0.15 h
[12]
  total protein half-life in vivo: 11.9 ± 0.49 h

## MFSALRHRTAALALGVCFILPVHASSPKPGDFANTQARHIATFFPGRMTGTPAEMLSADYIRQQFQQMGYRSDIRTFNSRYIYTARDNRKSWHNVTGSTVIAAHEGKAPQQIIIMAHLDTYAPLSDADADANLGGLTLQGMDDNAAGLGVMLELAERLKNTPTEYGIRFVATSGEEEGKLGAENLLKRMSDTEKKNTLLVINLDNLIVGDKLYFNSGVKTPEAVRKLTRDRALAIARSHGIAATTNPGLNKNYPKGTGCCNDAEIFDKAGIAVLSVEATNWNLGNKDGYQQRAKTPAFPAGNSWHDVRLDNHQHIDKALPGRIERRCRDVMRIMLPLVKELAKAS
[2]
  total protein half-life in vivo: 5.3 ± 0.29 h
[3]
  total protein half-life in vivo: 5.24 ± 0.83 h
[4]
  total protein half-life in vivo: 5.44 ± 0.031 h
[5]
  total protein half-life in vivo: 4.38 ± 0.053 h
[6]
  total protein half-life in vivo: 2.58 ± 0.67 h
[7]
  total protein half-life in vivo: 2.46 h
[9]
  total protein half-life in vivo: 5.37 ± 1 h
[10]
  total protein half-life in vivo: 9.09 ± 1.6 h
[11]
  total protein half-life in vivo: 4 ± 0.27 h
[12]
  total protein half-life in vivo: 7.1 ± 0.99 h

## MSGKPAARQGDMTQYGGSIVQGSAGVRIGAPTGVACSVCPGGVTSGHPVNPLLGAKVLPGETDIALPGPLPFILSRTYSSYRTKTPAPVGSLGPGWKMPADIRLQLRDNTLILSDNGGRSLYFEHLFPGEDGYSRSESLWLVRGGVAKLDEGHRLAALWQALPEELRLSPHRYLATNSPQGPWWLLGWCERVPEADEVLPAPLPPYRVLTGLVDRFGRTQTFHREAAGEFSGEITGVTDGAGRHFRLVLTTQAQRAEEARQQAISGGTEPSAFPDTLPGYTEYGRDNGIRLSAVWLTHDPEYPENLPAAPLVRYGWTPRGELAAVYDRSNTQVRSFTYDDKYRGRMVAHRHTGRPEICYRYDSDGRVTEQLNPAGLSYTYQYEKDRITITDSLNRREVLHTQGEGGLKRVVKKEHADGSVTQSQFDAVGRLRAQTDAAGRTTEYSPDVVTGLITRITTPDGRASAFYYNHHSQLTSATGPDGLEIRREYDEWGRLIQETAPDGDITRYRYDNPHSDLPCATEDATGSRKTMTWSRYGQLLSFTDCSGYVTRYDHDRFGQVTAVHREEGLSQYRAYDSRGQLIAVKDTQGHETRYEYNAAGDLTTVIAPDGSRNGTQYDAWGKAICTTQGGLTRSMEYDAAGRVIRLTSENGSHTTFRYDVLDRLIQETGFDGRTQRYHHDLTGKLIRSEDEGLVTHWHYDEADRLTHRTVNGETAERWQYDERGWLTDISHISEGHRVTVHYGYDSKGRLASEHLTVHHPQTNELLWQHETRHAYNAQGLANRCIPDSLPAVEWLTYGSGWLSGMKLGDTPLVEYTRDRLHRETLRSFGRYELTTAYTPAGQLQSQHLNSLLSDRDYTWNDNGELIRISSPRQTRSYSYSTTGRLTGVHTTAANLDIRIPYTTDPAGNRLPDPELHPDSALSMWPDNRIARDAHYLYRYDRHGRLTEKTDLIPEGVIRTDDERTHRYHYDSQHRLVHYTRTQYAEPLVESRYLYDPLGRRVAKRVWRRERDLTGWMSLSRKPQVTWYGWDGDRLTTIQNDRTRIQTIYQPGSFTPLIRVETATGELAKTQRRSLADTLQQSGGEDGGSVVFPPVLVQMLDRLESEILADRVSEESRRWLASCGLTVAQMQSQMDPVYTPARKIHLYHCDHRGLPLALISTEGTTAWYAEYDEWGNLLNEENPHQLQQLIRLPGQQYDEESGLYYNRHRYYDPLQGRYITQDPIGLKGGWNFYQYPLNPISNIDPLGLETLKCIKPLHSMGGTGERSGPDIWGNPFYHQYLCVPDGKGDYTCGGQDQRGESKGDGLWGPGKASNDTKEAAGRCDLVETDNSCVENCLKGKFKEVRPRYSVLPDIFTPINLGLFKNCQDWSNDSLETCKMKCSGNNIGRFIRFVFTGVM
[12]
  total protein half-life in vivo: 13.1 h

## MSKSRLTVFSFVRRFLLRLMVVLAVFWGGGIALFSVAPVPFSAVMVERQVSAWLHGNFRYVAHSDWVSMDQISPWMGLAVIAAEDQKFPEHWGFDVASIEKALAHNERNENRIRGASTISQQTAKNLFLWDGRSWVRKGLEAGLTLGIETVWSKKRILTVYLNIAEFGDGVFGVEAAAQRYFHKPASKLTRSEAALLAAVLPNPLRFKVSSPSGYVRSRQAWILRQMYQLGGEPFMQQHQLD
[1]
  total protein half-life in vivo: 7.03 h
[2]
  total protein half-life in vivo: 6.44 ± 0.48 h
[3]
  total protein half-life in vivo: 6.04 ± 0.026 h
[5]
  total protein half-life in vivo: 5.87 ± 0.34 h
[6]
  total protein half-life in vivo: 3.16 h
[8]
  total protein half-life in vivo: 10.8 ± 1.2 h
[9]
  total protein half-life in vivo: 6.11 ± 0.23 h
[10]
  total protein half-life in vivo: 12.3 ± 1.5 h
[11]
  total protein half-life in vivo: 6.23 ± 0.25 h
[12]
  total protein half-life in vivo: 12.8 ± 0.19 h
